From article PMC4588886, “A link between magnesium-chelatase H subunit and sucrose nonfermenting 1 (SNF1)-related protein kinase SnRK2.6/OST1 in Arabidopsis guard cell signalling in response to abscisic acid” (Journal of Experimental Botany, 2015)

Columns and labels:
[1] = target: T1, GST-tagged C-terminal half of ABAR protein (aa 681-1381) (Arabidopsis thaliana, UniProt Q9FNB0 681-1381); assay: SPR
T1 chain: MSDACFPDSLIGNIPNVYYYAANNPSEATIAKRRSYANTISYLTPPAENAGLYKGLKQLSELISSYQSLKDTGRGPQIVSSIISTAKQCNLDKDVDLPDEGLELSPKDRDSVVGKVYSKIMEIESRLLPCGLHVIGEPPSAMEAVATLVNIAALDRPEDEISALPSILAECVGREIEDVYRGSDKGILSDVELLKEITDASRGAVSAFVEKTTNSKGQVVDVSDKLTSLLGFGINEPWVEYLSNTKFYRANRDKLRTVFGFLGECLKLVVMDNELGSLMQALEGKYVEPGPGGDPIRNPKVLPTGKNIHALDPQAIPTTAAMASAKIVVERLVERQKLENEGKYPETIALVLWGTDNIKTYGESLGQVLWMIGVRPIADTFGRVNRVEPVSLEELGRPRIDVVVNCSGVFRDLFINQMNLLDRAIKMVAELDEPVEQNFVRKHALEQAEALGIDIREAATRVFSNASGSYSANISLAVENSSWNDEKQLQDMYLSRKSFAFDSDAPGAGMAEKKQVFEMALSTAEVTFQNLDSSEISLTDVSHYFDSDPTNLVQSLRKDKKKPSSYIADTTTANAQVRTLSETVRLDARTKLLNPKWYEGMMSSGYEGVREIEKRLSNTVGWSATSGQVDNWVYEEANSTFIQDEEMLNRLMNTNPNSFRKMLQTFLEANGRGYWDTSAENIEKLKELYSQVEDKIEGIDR

[2] = target: T2, GST-tagged C-terminal half of ABAR protein (aa 681-1381) (Arabidopsis thaliana, UniProt Q9FNB0 681-1381); assay: pull-down; GST-tagged ABAR (aa 681-1381, 1 ug) or GST alone added to E. coli lysate expressing His-tagged OST1; glutathione-sepharose 4B beads, 4 °C, 12 h; 10 mM Tris-HCl pH 7.5, 200 mM NaCl, 10% glycerol; blot with anti-His; conditions: one partner purified
T2 construct: Cloned into pGEX-4T-1; also called GST-ABAR; recombinant truncated ABAR protein; source: E. coli BL21(DE3), purified (Sepharose 4B)
T2 sequence (looked up): T1 chain

- Kd [1]: ~71.4 nM
- binding result [2]: binds
B1: His-tagged OST1 protein (recombinant, full-length ORF) (enzyme, Arabidopsis thaliana, UniProt Q940H6 1-362, looked up)
chain: MDRPAVSGPMDLPIMHDSDRYELVKDIGSGNFGVARLMRDKQSNELVAVKYIERGEKIDENVKREIINHRSLRHPNIVRFKEVILTPTHLAIVMEYASGGELFERICNAGRFSEDEARFFFQQLISGVSYCHAMQVCHRDLKLENTLLDGSPAPRLKICDFGYSKSSVLHSQPKSTVGTPAYIAPEVLLKKEYDGKVADVWSCGVTLYVMLVGAYPFEDPEEPKNFRKTIHRILNVQYAIPDYVHISPECRHLISRIFVADPAKRISIPEIRNHEWFLKNLPADLMNDNTMTTQFDESDQPGQSIEEIMQIIAEATVPPAGTQNLNHYLTGSLDIDDDMEEDLESDLDDLDIDSSGEIVYAM
notes: SNF1-related protein kinase SnRK2.6/OST1/SRK2E, Arabidopsis thaliana, At4g33950, full-length ORF; Cloned into pET-48b(+); also called recombinant OST1; SnRK2.6; source: E. coli BL21(DE3): in cell lysate (pull-down); purified (Ni-NTA agarose)
